Measured values: patent US20020028202A1 (Biogen, published 2002)
Positions count from the first letter of the chain named.

Key:
Assay in all cases: staining of transfected COS-7 cells, FACS
[1] = molecular target: T1, human gc chain mutant, VEY replaced by Ala (Domain 1 Loop AB), myc-tagged, on COS-7 cells (human, UniProt P31785 23-369)
T1 construct: whole, on cells; not shown: 9 amino acid myc tag at the 5' end of the construct
T1 sequence (looked up): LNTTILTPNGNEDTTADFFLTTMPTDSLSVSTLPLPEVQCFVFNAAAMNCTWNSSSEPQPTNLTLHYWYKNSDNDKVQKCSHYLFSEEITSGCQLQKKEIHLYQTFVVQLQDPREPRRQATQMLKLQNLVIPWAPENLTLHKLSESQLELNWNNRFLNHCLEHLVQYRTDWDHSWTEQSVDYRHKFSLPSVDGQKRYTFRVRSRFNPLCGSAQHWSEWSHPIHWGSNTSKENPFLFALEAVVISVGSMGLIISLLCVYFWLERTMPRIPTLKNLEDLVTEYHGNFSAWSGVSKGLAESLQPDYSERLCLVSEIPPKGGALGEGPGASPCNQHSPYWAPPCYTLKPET
Protocol: (§1) COS-7 cells are transiently transfected with 20 ug of DNA encoding the gc chain mutant or wildtype cDNA and 180 ug of herring sperm carrier DNA. After 2-3 days, COS-7 cells are harvested and analyzed by immnunofluorescent staining with anti-gc chain mAbs. MAbs are used at 10 ug/ml in PBS-1% BSA-0.02% sodium azide and allowed 30 minutes to bind to 1×10⁶ COS-7 cells. Cells are then washed 2 times, and bound mAb is detected with PE-conjugated goat anti-mouse Fc specific antibodies. The % of positive cells staining with the anti-gc chain mAb over an irrelevant control Ig is determined for a given gc chain mutant and for wildtype gc chain. […] Data are adjusted for any differences in level of expression of a mutant vs. wildtype constructs by measuring the binding of a mAb specific for a 9 amino acid myc tag engineered at the 5′ end of each gc chain construct. […] Values reduced from 100% indicate amino acid mutations which affect mAb binding.
(§2) The value “100%” indicates no effect of mutation and lower percentages indicate greater losses in binding as a result of the sequence change.

[2] = molecular target: T2, human gc chain mutant, LSE replaced by Ala (Domain 2 Loop AB), myc-tagged, on COS-7 cells (human, UniProt P31785 23-369)
T2 construct: whole, on cells; not shown: 9 amino acid myc tag at the 5' end of the construct
T2 sequence (looked up): T1 sequence (looked up) with A45V, A46E, A47Y, L143A, S144A, E145A
Protocol: as §1, §2

[3] = molecular target: T3, human gc chain mutant, HCL replaced by Ala (Domain 2 Loop BC), myc-tagged, on COS-7 cells (human, UniProt P31785 23-369)
T3 construct: whole, on cells; not shown: 9 amino acid myc tag at the 5' end of the construct
T3 sequence (looked up): T1 sequence (looked up) with A45V, A46E, A47Y, H159A, C160A, L161A
Protocol: as §1, §2

[4] = molecular target: T4, human gc chain mutant, LEH replaced by Ala (Domain 2 Loop BC), myc-tagged, on COS-7 cells (human, UniProt P31785 23-369)
T4 construct: whole, on cells; not shown: 9 amino acid myc tag at the 5' end of the construct
T4 sequence (looked up): T1 sequence (looked up) with A45V, A46E, A47Y, L161A, E162A, H163A
Protocol: as §1, §2

[5] = molecular target: T5, human gc chain mutant, FNP replaced by Ala (Domain 2 Loop FQ), myc-tagged, on COS-7 cells (human, UniProt P31785 23-369)
T5 construct: whole, on cells; not shown: 9 amino acid myc tag at the 5' end of the construct
T5 sequence (looked up): T1 sequence (looked up) with A45V, A46E, A47Y, F205A, N206A, P207A
Protocol: as §1, §2

- % binding to mutant gc chain/wildtype gc chain [1]: 0%
- % binding to mutant gc chain/wildtype gc chain [2]: 90%
- % binding to mutant gc chain/wildtype gc chain [3]: 8%
- % binding to mutant gc chain/wildtype gc chain [4]: 0%
- % binding to mutant gc chain/wildtype gc chain [5]: 28%
B1: CP.B8 monoclonal antibody (murine anti-human gc chain, hybridoma ATCC HB-12107) (antibody, V domains shown)
VH: LQESGPGLVAPSQSLSITCTVSGFSLTSYGVHWVRQPPGKGLEWLGVIWAGGSTNYNSALMSRLNINRDNSKSQIFLKMNSLQTDDTAIYYCAREGSTVDSMDYWGQGTTVT
VL: DIVMTQSHKFMSTSVGDSITITCKASQDVTTAVAWYQQKPGQSPKLLIYWASTRHTGVPDRFTGSGSGTDYTLTISSVQAEDLALYYCQQHYITPWTFGGGTKLEI
notes: Used unconjugated and biotin-conjugated; also called CP.B8 mAb; mAb CP.B8
